Experimental data reported in patent US20200115430A1 (I2O THERAPEUTICS, published 2020).
Starred links: 1 amine or outer side, 2 acyl side, 3 side chain; linkers in the order of their positions; H or OH if unused. Positions of bridges follow the written chain, without caps; N, C: chain ends. Groups on a side chain read outwards from the residue. No end group written: not given here. *: point of attachment. C20 diacid = O=C(O)CCCCCCCCCCCCCCCCCCC(=O)*; C18 diacid = O=C(O)CCCCCCCCCCCCCCCCC(=O)*; γGlu = O=C(O)[C@H](CCC(=O)[*:2])N[*:1]; Palmitoyl = CCCCCCCCCCCCCCCC(=O)*

Columns and labels:
human amylin 3 receptor = biological target: T1, human amylin 3 receptor (human, UniProt P30988 25-474; O60896 24-148); assay: cell-based or functional assay
T1 sequence (looked up) 1: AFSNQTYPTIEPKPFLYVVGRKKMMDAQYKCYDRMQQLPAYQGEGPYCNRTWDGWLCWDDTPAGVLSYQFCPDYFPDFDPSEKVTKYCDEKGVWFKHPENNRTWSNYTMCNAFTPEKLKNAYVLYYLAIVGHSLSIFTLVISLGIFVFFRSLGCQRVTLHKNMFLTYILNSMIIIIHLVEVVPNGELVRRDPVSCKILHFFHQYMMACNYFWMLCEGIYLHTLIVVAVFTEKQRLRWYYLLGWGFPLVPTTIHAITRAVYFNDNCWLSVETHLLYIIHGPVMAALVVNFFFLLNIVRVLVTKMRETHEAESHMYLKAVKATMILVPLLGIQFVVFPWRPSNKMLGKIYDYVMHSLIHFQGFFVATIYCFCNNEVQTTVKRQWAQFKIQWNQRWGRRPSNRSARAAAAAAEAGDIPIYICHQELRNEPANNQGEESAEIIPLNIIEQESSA
T1 sequence (looked up) 2: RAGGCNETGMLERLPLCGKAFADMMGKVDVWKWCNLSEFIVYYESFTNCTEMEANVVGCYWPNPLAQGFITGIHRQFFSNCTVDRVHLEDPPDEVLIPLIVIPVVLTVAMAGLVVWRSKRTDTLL

[1] = biological target: T2, human calcitonin receptor (human, UniProt P30988 25-474); assay: cell-based or functional assay
T2 sequence (looked up): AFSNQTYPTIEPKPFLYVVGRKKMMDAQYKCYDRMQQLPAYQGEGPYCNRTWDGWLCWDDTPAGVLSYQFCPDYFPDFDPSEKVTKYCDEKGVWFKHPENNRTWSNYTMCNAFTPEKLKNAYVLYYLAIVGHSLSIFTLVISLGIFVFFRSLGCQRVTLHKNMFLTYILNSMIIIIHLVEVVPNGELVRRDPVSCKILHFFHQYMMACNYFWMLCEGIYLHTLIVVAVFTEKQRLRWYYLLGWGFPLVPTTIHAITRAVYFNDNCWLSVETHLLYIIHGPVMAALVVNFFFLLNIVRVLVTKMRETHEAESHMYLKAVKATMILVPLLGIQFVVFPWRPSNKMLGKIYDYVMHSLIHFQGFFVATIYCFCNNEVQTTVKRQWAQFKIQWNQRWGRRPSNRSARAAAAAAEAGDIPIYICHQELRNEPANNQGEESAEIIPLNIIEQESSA

| pEC50 (cAMP accumulation), 0% HSA (human amylin 3 receptor) | pEC50 (cAMP accumulation), 0.1% HSA (human amylin 3 receptor) | pEC50 (cAMP accumulation), 4% HSA (human amylin 3 receptor) | pEC50 (cAMP accumulation), 0% HSA [1] | pEC50 (cAMP accumulation), 0.1% HSA [1] | pEC50 (cAMP accumulation), 4% HSA [1] | Binder |
| --- | --- | --- | --- | --- | --- | --- |
| 12 pEC50 | 10.8 pEC50 | 9.5 pEC50 | 11.7 pEC50 | 10.5 pEC50 | 9.3 pEC50 | K([γGlu-C20 diacid])CNTSTCATSRLANFLQKSSNNFGPILPPTKVGSETY-NH2 (disulfide 2-7; N-terminus assumed; SMILES CC[C@H](C)[C@H](NC(=O)[C@@H]1CCCN1C(=O)CNC(=O)[C@H](Cc1ccccc1)NC(=O)[C@H](CC(N)=O)NC(=O)[C@H](CC(N)=O)NC(=O)[C@H](CO)NC(=O)[C@H](CO)NC(=O)[C@H](CCCCN)NC(=O)[C@H](CCC(N)=O)NC(=O)[C@H](CC(C)C)NC(=O)[C@H](Cc1ccccc1)NC(=O)[C@H](CC(N)=O)NC(=O)[C@H](C)NC(=O)[C@H](CC(C)C)NC(=O)[C@H](CCCNC(=N)N)NC(=O)[C@H](CO)NC(=O)[C@@H](NC(=O)[C@H](C)NC(=O)[C@@H]1CSSC[C@H](NC(=O)[C@@H](N)CCCCNC(=O)CC[C@H](NC(=O)CCCCCCCCCCCCCCCCCCC(=O)O)C(=O)O)C(=O)N[C@@H](CC(N)=O)C(=O)N[C@@H]([C@@H](C)O)C(=O)N[C@@H](CO)C(=O)N[C@@H]([C@@H](C)O)C(=O)N1)[C@@H](C)O)C(=O)N[C@@H](CC(C)C)C(=O)N1CCC[C@H]1C(=O)N1CCC[C@H]1C(=O)N[C@H](C(=O)N[C@@H](CCCCN)C(=O)N[C@H](C(=O)NCC(=O)N[C@@H](CO)C(=O)N[C@@H](CCC(=O)O)C(=O)N[C@H](C(=O)N[C@@H](Cc1ccc(O)cc1)C(N)=O)[C@@H](C)O)C(C)C)[C@@H](C)O) [Compound A116] |
| 12.5 pEC50 | 11.6 pEC50 | 10.3 pEC50 | 11.5 pEC50 | 10.5 pEC50 | 9 pEC50 | SCNTSTCATQRLK([γGlu-Palmitoyl])NELHKSSNNFGPILPPTKVGSETY-NH2 (disulfide 2-7; N-terminus assumed; SMILES CCCCCCCCCCCCCCCC(=O)N[C@@H](CCC(=O)NCCCC[C@H](NC(=O)[C@H](CC(C)C)NC(=O)[C@H](CCCNC(=N)N)NC(=O)[C@H](CCC(N)=O)NC(=O)[C@@H](NC(=O)[C@H](C)NC(=O)[C@@H]1CSSC[C@H](NC(=O)[C@@H](N)CO)C(=O)N[C@@H](CC(N)=O)C(=O)N[C@@H]([C@@H](C)O)C(=O)N[C@@H](CO)C(=O)N[C@@H]([C@@H](C)O)C(=O)N1)[C@@H](C)O)C(=O)N[C@@H](CC(N)=O)C(=O)N[C@@H](CCC(=O)O)C(=O)N[C@@H](CC(C)C)C(=O)N[C@@H](Cc1c[nH]cn1)C(=O)N[C@@H](CCCCN)C(=O)N[C@@H](CO)C(=O)N[C@@H](CO)C(=O)N[C@@H](CC(N)=O)C(=O)N[C@@H](CC(N)=O)C(=O)N[C@@H](Cc1ccccc1)C(=O)NCC(=O)N1CCC[C@H]1C(=O)N[C@H](C(=O)N[C@@H](CC(C)C)C(=O)N1CCC[C@H]1C(=O)N1CCC[C@H]1C(=O)N[C@H](C(=O)N[C@@H](CCCCN)C(=O)N[C@H](C(=O)NCC(=O)N[C@@H](CO)C(=O)N[C@@H](CCC(=O)O)C(=O)N[C@H](C(=O)N[C@@H](Cc1ccc(O)cc1)C(N)=O)[C@@H](C)O)C(C)C)[C@@H](C)O)[C@@H](C)CC)C(=O)O) [Compound A107] |
| 11.4 pEC50 | 9.7 pEC50 | 8.4 pEC50 | 10.3 pEC50 | 8.9 pEC50 | 7.4 pEC50 | K(C18 diacid)CNTSTCATQRLANELHKSSNNFGPILPPTKVGSETY-NH2 (disulfide 2-7; N-terminus assumed; SMILES CC[C@H](C)[C@H](NC(=O)[C@@H]1CCCN1C(=O)CNC(=O)[C@H](Cc1ccccc1)NC(=O)[C@H](CC(N)=O)NC(=O)[C@H](CC(N)=O)NC(=O)[C@H](CO)NC(=O)[C@H](CO)NC(=O)[C@H](CCCCN)NC(=O)[C@H](Cc1c[nH]cn1)NC(=O)[C@H](CC(C)C)NC(=O)[C@H](CCC(=O)O)NC(=O)[C@H](CC(N)=O)NC(=O)[C@H](C)NC(=O)[C@H](CC(C)C)NC(=O)[C@H](CCCNC(=N)N)NC(=O)[C@H](CCC(N)=O)NC(=O)[C@@H](NC(=O)[C@H](C)NC(=O)[C@@H]1CSSC[C@H](NC(=O)[C@@H](N)CCCCNC(=O)CCCCCCCCCCCCCCCCC(=O)O)C(=O)N[C@@H](CC(N)=O)C(=O)N[C@@H]([C@@H](C)O)C(=O)N[C@@H](CO)C(=O)N[C@@H]([C@@H](C)O)C(=O)N1)[C@@H](C)O)C(=O)N[C@@H](CC(C)C)C(=O)N1CCC[C@H]1C(=O)N1CCC[C@H]1C(=O)N[C@H](C(=O)N[C@@H](CCCCN)C(=O)N[C@H](C(=O)NCC(=O)N[C@@H](CO)C(=O)N[C@@H](CCC(=O)O)C(=O)N[C@H](C(=O)N[C@@H](Cc1ccc(O)cc1)C(N)=O)[C@@H](C)O)C(C)C)[C@@H](C)O) [Compound A120] |
| 12.2 pEC50 | 11.1 pEC50 | 9.6 pEC50 | 11.7 pEC50 | 10.5 pEC50 | 9 pEC50 | K([γGlu-C18 diacid])CNTSTCATSRLANFLQKSSNNFGPILPPTKVGSETY-NH2 (disulfide 2-7; N-terminus assumed; SMILES CC[C@H](C)[C@H](NC(=O)[C@@H]1CCCN1C(=O)CNC(=O)[C@H](Cc1ccccc1)NC(=O)[C@H](CC(N)=O)NC(=O)[C@H](CC(N)=O)NC(=O)[C@H](CO)NC(=O)[C@H](CO)NC(=O)[C@H](CCCCN)NC(=O)[C@H](CCC(N)=O)NC(=O)[C@H](CC(C)C)NC(=O)[C@H](Cc1ccccc1)NC(=O)[C@H](CC(N)=O)NC(=O)[C@H](C)NC(=O)[C@H](CC(C)C)NC(=O)[C@H](CCCNC(=N)N)NC(=O)[C@H](CO)NC(=O)[C@@H](NC(=O)[C@H](C)NC(=O)[C@@H]1CSSC[C@H](NC(=O)[C@@H](N)CCCCNC(=O)CC[C@H](NC(=O)CCCCCCCCCCCCCCCCC(=O)O)C(=O)O)C(=O)N[C@@H](CC(N)=O)C(=O)N[C@@H]([C@@H](C)O)C(=O)N[C@@H](CO)C(=O)N[C@@H]([C@@H](C)O)C(=O)N1)[C@@H](C)O)C(=O)N[C@@H](CC(C)C)C(=O)N1CCC[C@H]1C(=O)N1CCC[C@H]1C(=O)N[C@H](C(=O)N[C@@H](CCCCN)C(=O)N[C@H](C(=O)NCC(=O)N[C@@H](CO)C(=O)N[C@@H](CCC(=O)O)C(=O)N[C@H](C(=O)N[C@@H](Cc1ccc(O)cc1)C(N)=O)[C@@H](C)O)C(C)C)[C@@H](C)O) [Compound A109] |
